Values of other authors as cited in publication PMC4776130.
Like-named read-outs stand apart in the source and are kept apart here.

Experiments:
[1] = molecular target: Asp43 (UniProt position 64, ALNNKDKPEDA); assay: NMR; settings: HdeA dimer (remains dimeric from pH 6 down to pH 3)
[2] = molecular target: Glu19 (UniProt position 40, NSWTCEDFLAV); assay: NMR; settings: HdeA dimer (remains dimeric from pH 6 down to pH 3)
[3] = molecular target: Asp25 (UniProt position 46, DFLAVDESFQP); assay: NMR; settings: HdeA dimer (remains dimeric from pH 6 down to pH 3)
[4] = molecular target: Asp76 (UniProt position 97, QANFKDKVKGE); assay: NMR; settings: HdeA dimer (remains dimeric from pH 6 down to pH 3)
[5] = molecular target: Glu81 (UniProt position 102, DKVKGEWDKIK); assay: NMR; settings: HdeA dimer (remains dimeric from pH 6 down to pH 3)
[6] = molecular target: Glu26 (UniProt position 47, FLAVDESFQPT); assay: NMR; settings: HdeA dimer (remains dimeric from pH 6 down to pH 3)
[7] = molecular target: Asp83 (UniProt position 104, VKGEWDKIKKD); assay: NMR; settings: HdeA dimer (remains dimeric from pH 6 down to pH 3)
[8] = molecular target: Glu46 (UniProt position 67, NKDKPEDAVLD); assay: NMR; settings: HdeA dimer (remains dimeric from pH 6 down to pH 3)
[9] = molecular target: Asp20 (UniProt position 41, SWTCEDFLAVD); assay: NMR; settings: HdeA dimer (remains dimeric from pH 6 down to pH 3)
[10] = molecular target: Asp51 (UniProt position 72, EDAVLDVQGIA); assay: NMR; settings: HdeA dimer (remains dimeric from pH 6 down to pH 3)
[11] = molecular target: Asp69 (UniProt position 90, QACTQDKQANF); assay: NMR; settings: HdeA dimer (remains dimeric from pH 6 down to pH 3)
[12] = molecular target: Asp47 (UniProt position 68, KDKPEDAVLDV); assay: NMR; settings: HdeA dimer (remains dimeric from pH 6 down to pH 3)
[13] = molecular target: T1, His15 (UniProt position 33, AAMKRHGLDNY)
[14] = molecular target: T1, His15; assay: NMR
[15] = molecular target: Asp83 (UniProt position 165, KGQRTDKYGRG); settings: folded SNase Delta+PHS
[16] = molecular target: Glu43 (UniProt position 125, LVDTPETKHPK); settings: folded SNase Delta+PHS
[17] = molecular target: Glu52 (UniProt position 134, PKKFNEKYGPE); settings: folded SNase Delta+PHS
[18] = molecular target: His121 (UniProt position 203, KGNNTHEQLLR)
[19] = molecular target: Glu73 (UniProt position 155, NAKKIEVEFDK); settings: folded SNase Delta+PHS
[20] = molecular target: His8 (UniProt position 90, STKKLHKEPAT)
[21] = molecular target: Glu10 (UniProt position 92, KKLHKEPATLI); settings: folded SNase Delta+PHS
[22] = molecular target: Glu122 (UniProt position 204, GNNTHEQLLRK); settings: folded SNase Delta+PHS
[23] = molecular target: Glu67 (UniProt position 149, TKKMVENAKKI); settings: folded SNase Delta+PHS
[24] = molecular target: Asp40 (UniProt position 122, RLLLVDTPETK); settings: folded SNase Delta+PHS
[25] = molecular target: Asp77 (UniProt position 159, IEVEFDKGQRT); settings: folded SNase Delta+PHS
[26] = molecular target: Glu75 (UniProt position 157, KKIEVEFDKGQ); settings: folded SNase Delta+PHS
[27] = molecular target: Asp21 (UniProt position 103, KAIDGDTVKLM); settings: folded SNase Delta+PHS
[28] = molecular target: Glu57 (UniProt position 139, EKYGPEASAFT); settings: folded SNase Delta+PHS
[29] = molecular target: Asp95 (UniProt position 177, AYIYADGKMVN); settings: folded SNase Delta+PHS
[30] = molecular target: Glu135 (UniProt position 217, AQAKKEKLNIW); settings: folded SNase Delta+PHS
[31] = molecular target: Glu101 (UniProt position 183, GKMVNEALVRQ); settings: folded SNase Delta+PHS
[32] = molecular target: Asp19 (UniProt position 101, LIKAIDGDTVK); settings: folded SNase Delta+PHS
[33] = molecular target: Glu129 (UniProt position 211, LLRKAEAQAKK); settings: folded SNase Delta+PHS

Substance: Acid stress chaperone HdeA (Escherichia coli)
- pKa [1]: 3.87
- pKa [2]: 4.38
- pKa [3]: 3.71
- pKa [4]: 3.75
- pKa [5]: 4.23
- pKa [6]: 4.57
- pKa [7]: 3.97
- pKa [8]: 4.07
- pKa [9]: 3.66
- pKa [10]: 3.83
- pKa [11]: 3.74
- pKa [12]: 4.14

Substance: Hen egg-white lysozyme (HEWL) (Gallus gallus)
- pKa [13]: 5.68–5.74
- pKa [14]: 5.5 ± 0.2

Substance: Staphylococcal nuclease (SNase), Delta+PHS variant (Staphylococcus aureus; G50F;V51N;P117G;H124L;S128A;del44-49)
- pKa [15]: <2.2
- pKa [16]: 4.32
- pKa [17]: 3.93
- pKa [18]: 5.25
- pKa [19]: 3.31
- pKa [20]: 6.50
- pKa [21]: 2.82
- pKa [22]: 3.89
- pKa [23]: 3.76
- pKa [24]: 3.87
- pKa [25]: <2.2
- pKa [26]: 3.26
- pKa [27]: 6.54
- pKa [28]: 3.49
- pKa [29]: 2.16
- pKa [30]: 3.76
- pKa [31]: 3.81
- pKa [32]: 2.21
- pKa [33]: 3.75
